Source: the supplement of paper PMC9112550, “Optimization of the antimicrobial peptide Bac7 by deep mutational scanning” (BMC Biology, 2022)

System: Escherichia coli TOP10
Assay: shrunken log2 fold change of peptide-encoding DNA abundance (4.5 h post-induction vs induction); higher = less antimicrobial activity (less host growth inhibition)
Conditions: time post-induction: 4.5 h; library: site-saturation at positions 5, 18, 19, 20
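Also: peptides expressed intracellularly from a pBAD plasmid library in pooled LB shake-flask culture, induced with 0.3% L-arabinose, DNA abundance read by NGS, three biological replicates, DESeq2 with apeglm shrinkage.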

Sequence	shrunken log2 fold change
RRIRVRPPRLPRPRPRPKHGPRP	-0.0119
RRIRFRPPRLPRPRPRPCELPRP	0.00618
RRIRFRPPRLPRPRPRPNPGPRP	0.159
RRIRARPPRLPRPRPRPCFMPRP	-0.0304
RRIRIRPPRLPRPRPRPCAKPRP	0.0416
RRIRDRPPRLPRPRPRPRMFPRP	-0.0535
RRIRNRPPRLPRPRPRPATLPRP	-0.365
RRIRLRPPRLPRPRPRPGKLPRP	-0.00186
RRIRRRPPRLPRPRPRPTVLPRP	-0.227
RRIRCRPPRLPRPRPRPGAYPRP	-0.319
RRIRTRPPRLPRPRPRPQHYPRP	-0.691
RRIRMRPPRLPRPRPRPPKDPRP	0.622
RRIRFRPPRLPRPRPRPTYIPRP	-0.434
RRIRRRPPRLPRPRPRPRARPRP	0.618
RRIRVRPPRLPRPRPRPMCPPRP	0.0857
RRIRFRPPRLPRPRPRPLRHPRP	0.353
RRIRFRPPRLPRPRPRPIAYPRP	-0.156
RRIRKRPPRLPRPRPRPNFEPRP	0.0868
RRIRTRPPRLPRPRPRPCQTPRP	-0.0283
RRIRGRPPRLPRPRPRPNVQPRP	1.08
RRIRCRPPRLPRPRPRPGWSPRP	-0.0169
RRIRKRPPRLPRPRPRPLGWPRP	1.11
RRIRLRPPRLPRPRPRPSFTPRP	-0.672
RRIRERPPRLPRPRPRPICIPRP	-0.0731
RRIRQRPPRLPRPRPRPRQYPRP	-0.163

Sequence	shrunken log2 fold change
RRIRARPPRLPRPRPRPVDFPRP	0.39
RRIRGRPPRLPRPRPRPTPRPRP	1.16
RRIRHRPPRLPRPRPRPPHMPRP	-0.115
RRIRQRPPRLPRPRPRPYHWPRP	-0.0766
RRIRGRPPRLPRPRPRPKLHPRP	0.64
RRIRGRPPRLPRPRPRPCISPRP	-0.273
RRIRMRPPRLPRPRPRPVDAPRP	1.17
RRIRHRPPRLPRPRPRPHNVPRP	-0.195
RRIRVRPPRLPRPRPRPFFRPRP	0.0448
RRIRERPPRLPRPRPRPWVNPRP	-0.00303
RRIRHRPPRLPRPRPRPAFQPRP	-0.0477
RRIRCRPPRLPRPRPRPKYRPRP	-0.326
RRIRGRPPRLPRPRPRPLWWPRP	0.458
RRIRERPPRLPRPRPRPGACPRP	0.0171
RRIRHRPPRLPRPRPRPQHFPRP	0.0728
RRIRWRPPRLPRPRPRPPQPPRP	0.66
RRIRDRPPRLPRPRPRPEAMPRP	-0.00943
RRIRSRPPRLPRPRPRPWRYPRP	-0.336
RRIRHRPPRLPRPRPRPEWFPRP	-0.0468
RRIRWRPPRLPRPRPRPDNHPRP	-0.299
RRIRTRPPRLPRPRPRPPIMPRP	-0.454
RRIRIRPPRLPRPRPRPHICPRP	-0.0273
RRIRHRPPRLPRPRPRPSDFPRP	0.00333
RRIRYRPPRLPRPRPRPVKHPRP	-0.122
RRIRCRPPRLPRPRPRPKLTPRP	-0.223

Sequence	shrunken log2 fold change
RRIRDRPPRLPRPRPRPMFEPRP	0.0172
RRIRMRPPRLPRPRPRPVKQPRP	0.0432
RRIRTRPPRLPRPRPRPVVKPRP	-0.189
RRIRKRPPRLPRPRPRPQEQPRP	0.225
RRIRHRPPRLPRPRPRPVNAPRP	-0.0381
RRIRARPPRLPRPRPRPCSNPRP	-0.153
RRIRGRPPRLPRPRPRPMIYPRP	0.0378
RRIRYRPPRLPRPRPRPIILPRP	-0.605
RRIRFRPPRLPRPRPRPSGNPRP	-0.24
RRIRYRPPRLPRPRPRPWVWPRP	-0.111
RRIRERPPRLPRPRPRPVYPPRP	-0.335
RRIRIRPPRLPRPRPRPNYKPRP	-0.911
RRIRMRPPRLPRPRPRPERHPRP	0.764
RRIRERPPRLPRPRPRPLKCPRP	-0.11
RRIRKRPPRLPRPRPRPSNEPRP	-0.183
RRIRNRPPRLPRPRPRPQAYPRP	-0.3
RRIRIRPPRLPRPRPRPANWPRP	0.236
RRIRCRPPRLPRPRPRPVTYPRP	0.0559
RRIRQRPPRLPRPRPRPTPIPRP	0.182
RRIRCRPPRLPRPRPRPVQMPRP	0.239
RRIRWRPPRLPRPRPRPQYQPRP	-0.268
RRIRNRPPRLPRPRPRPLHGPRP	-0.0305
RRIRCRPPRLPRPRPRPFYWPRP	0.0228
RRIRRRPPRLPRPRPRPNHAPRP	0.345
RRIRMRPPRLPRPRPRPNCVPRP	-0.00674

Sequence	shrunken log2 fold change
RRIRARPPRLPRPRPRPKIFPRP	-0.0226
RRIRFRPPRLPRPRPRPASQPRP	-0.0114
RRIRERPPRLPRPRPRPHGPPRP	0.139
RRIRERPPRLPRPRPRPPECPRP	0.0263
RRIRPRPPRLPRPRPRPHMMPRP	-0.19
RRIRQRPPRLPRPRPRPEMNPRP	0.0404
RRIRNRPPRLPRPRPRPPHVPRP	0.147
RRIRHRPPRLPRPRPRPFAQPRP	-0.163
RRIRVRPPRLPRPRPRPIRWPRP	-0.0339
RRIRMRPPRLPRPRPRPGKAPRP	0.153
RRIRIRPPRLPRPRPRPNERPRP	-0.319
RRIRRRPPRLPRPRPRPRHKPRP	1.89
RRIRGRPPRLPRPRPRPNNCPRP	0.101
RRIRARPPRLPRPRPRPDQQPRP	-0.0359
RRIRERPPRLPRPRPRPEQAPRP	0.143
RRIRYRPPRLPRPRPRPKEIPRP	-0.0434
RRIRIRPPRLPRPRPRPIMPPRP	-0.825
RRIRMRPPRLPRPRPRPFDLPRP	0.16
RRIRGRPPRLPRPRPRPPYQPRP	0.123
RRIRRRPPRLPRPRPRPMNWPRP	0.291
RRIRSRPPRLPRPRPRPQFGPRP	0.0239
RRIRCRPPRLPRPRPRPHSRPRP	0.0572
RRIRDRPPRLPRPRPRPVKDPRP	-0.173
RRIRMRPPRLPRPRPRPYCEPRP	-0.34
RRIRYRPPRLPRPRPRPVIDPRP	-0.942

Sequence	shrunken log2 fold change
RRIRDRPPRLPRPRPRPMKAPRP	0.0349
RRIRCRPPRLPRPRPRPYVHPRP	-1.53
RRIRQRPPRLPRPRPRPKTFPRP	-0.259
RRIRRRPPRLPRPRPRPLLPPRP	0.574
RRIRTRPPRLPRPRPRPRWRPRP	0.483
RRIRFRPPRLPRPRPRPQYVPRP	-0.368
RRIRQRPPRLPRPRPRPMSCPRP	0.029
RRIRLRPPRLPRPRPRPMAQPRP	-0.00088
RRIRRRPPRLPRPRPRPWSQPRP	-0.132
RRIRDRPPRLPRPRPRPANAPRP	-0.00277
RRIRTRPPRLPRPRPRPLDTPRP	-0.566
RRIRQRPPRLPRPRPRPKYFPRP	0.0276
RRIRCRPPRLPRPRPRPMKFPRP	-0.0717
RRIRIRPPRLPRPRPRPVWNPRP	-0.576
RRIRRRPPRLPRPRPRPFRTPRP	-0.0909
RRIRIRPPRLPRPRPRPWFAPRP	-0.31
RRIRYRPPRLPRPRPRPSARPRP	-0.137
RRIRERPPRLPRPRPRPHKNPRP	-0.206
RRIRRRPPRLPRPRPRPEKCPRP	-0.00259
RRIRMRPPRLPRPRPRPQYGPRP	0.015
RRIRTRPPRLPRPRPRPHKHPRP	-0.417
RRIRCRPPRLPRPRPRPMLCPRP	0.0786
RRIRFRPPRLPRPRPRPKCIPRP	-0.338
RRIRCRPPRLPRPRPRPRLIPRP	0.0496
RRIRMRPPRLPRPRPRPFQCPRP	-0.153
